Consider 8 substances from IntAct's records for PubMed 25910212.

Targets include cof2_human CFL2 (UniProt Q9Y281); KRT40 (UniProt Q6A162); tpp2_human TPP2 (UniProt P29144); tfcp2_human TFCP2 (UniProt Q12800); hem1_human ALAS1 (UniProt P13196); tsg10_human TSGA10 (UniProt Q9BZW7); md1l1_human MAD1L1 (UniProt Q9Y6D9); tfpt_human TFPT (UniProt P0C1Z6); kxdl1_human KXD1 (UniProt Q9BQD3).
The target in assay [1] is cap2_human CAP2 (UniProt P40123).
The target is the same in assay [2]. The source holds these as a separate data set.
Another assay concerns the target T1, kash5_human KASH5 (UniProt Q8N6L0).
T1 sequence: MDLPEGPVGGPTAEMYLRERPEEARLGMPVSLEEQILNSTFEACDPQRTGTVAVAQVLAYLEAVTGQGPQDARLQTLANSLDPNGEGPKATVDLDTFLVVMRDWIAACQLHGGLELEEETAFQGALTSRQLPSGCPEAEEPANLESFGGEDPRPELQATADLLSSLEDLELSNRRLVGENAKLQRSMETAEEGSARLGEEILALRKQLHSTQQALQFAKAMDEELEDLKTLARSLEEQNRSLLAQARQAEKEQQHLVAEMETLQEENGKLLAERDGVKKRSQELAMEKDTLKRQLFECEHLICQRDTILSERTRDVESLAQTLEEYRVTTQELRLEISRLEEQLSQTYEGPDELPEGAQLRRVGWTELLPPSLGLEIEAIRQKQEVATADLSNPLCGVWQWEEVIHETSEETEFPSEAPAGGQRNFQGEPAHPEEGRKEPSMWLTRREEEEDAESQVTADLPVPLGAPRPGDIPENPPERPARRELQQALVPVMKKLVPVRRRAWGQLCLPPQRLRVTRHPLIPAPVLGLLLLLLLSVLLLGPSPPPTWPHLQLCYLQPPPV

The next assay has as its target T2, fsd2_human FSD2 (UniProt A1L4K1).
T2 sequence: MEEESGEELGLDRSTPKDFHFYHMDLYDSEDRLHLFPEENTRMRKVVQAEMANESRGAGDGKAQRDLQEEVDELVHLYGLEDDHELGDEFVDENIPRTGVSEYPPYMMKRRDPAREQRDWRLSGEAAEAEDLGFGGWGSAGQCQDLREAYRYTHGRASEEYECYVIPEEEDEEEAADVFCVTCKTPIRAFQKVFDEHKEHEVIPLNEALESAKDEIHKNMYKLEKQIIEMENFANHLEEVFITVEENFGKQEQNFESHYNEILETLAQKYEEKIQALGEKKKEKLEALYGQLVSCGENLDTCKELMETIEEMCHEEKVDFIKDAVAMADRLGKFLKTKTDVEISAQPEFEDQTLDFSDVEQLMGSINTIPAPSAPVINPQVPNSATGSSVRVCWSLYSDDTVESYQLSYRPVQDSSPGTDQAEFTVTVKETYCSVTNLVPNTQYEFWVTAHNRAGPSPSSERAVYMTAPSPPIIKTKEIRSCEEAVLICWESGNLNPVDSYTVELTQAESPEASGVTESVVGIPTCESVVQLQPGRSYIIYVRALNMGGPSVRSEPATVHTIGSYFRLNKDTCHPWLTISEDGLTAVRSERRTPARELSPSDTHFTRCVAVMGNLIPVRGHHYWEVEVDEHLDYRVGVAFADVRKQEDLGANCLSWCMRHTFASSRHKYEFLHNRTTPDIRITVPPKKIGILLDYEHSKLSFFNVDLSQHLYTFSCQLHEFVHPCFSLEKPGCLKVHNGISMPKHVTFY

In assay [3] the target is goga2_human GOLGA2 (UniProt Q08379).
goga2_human GOLGA2, sequence (Q08379 whole entry): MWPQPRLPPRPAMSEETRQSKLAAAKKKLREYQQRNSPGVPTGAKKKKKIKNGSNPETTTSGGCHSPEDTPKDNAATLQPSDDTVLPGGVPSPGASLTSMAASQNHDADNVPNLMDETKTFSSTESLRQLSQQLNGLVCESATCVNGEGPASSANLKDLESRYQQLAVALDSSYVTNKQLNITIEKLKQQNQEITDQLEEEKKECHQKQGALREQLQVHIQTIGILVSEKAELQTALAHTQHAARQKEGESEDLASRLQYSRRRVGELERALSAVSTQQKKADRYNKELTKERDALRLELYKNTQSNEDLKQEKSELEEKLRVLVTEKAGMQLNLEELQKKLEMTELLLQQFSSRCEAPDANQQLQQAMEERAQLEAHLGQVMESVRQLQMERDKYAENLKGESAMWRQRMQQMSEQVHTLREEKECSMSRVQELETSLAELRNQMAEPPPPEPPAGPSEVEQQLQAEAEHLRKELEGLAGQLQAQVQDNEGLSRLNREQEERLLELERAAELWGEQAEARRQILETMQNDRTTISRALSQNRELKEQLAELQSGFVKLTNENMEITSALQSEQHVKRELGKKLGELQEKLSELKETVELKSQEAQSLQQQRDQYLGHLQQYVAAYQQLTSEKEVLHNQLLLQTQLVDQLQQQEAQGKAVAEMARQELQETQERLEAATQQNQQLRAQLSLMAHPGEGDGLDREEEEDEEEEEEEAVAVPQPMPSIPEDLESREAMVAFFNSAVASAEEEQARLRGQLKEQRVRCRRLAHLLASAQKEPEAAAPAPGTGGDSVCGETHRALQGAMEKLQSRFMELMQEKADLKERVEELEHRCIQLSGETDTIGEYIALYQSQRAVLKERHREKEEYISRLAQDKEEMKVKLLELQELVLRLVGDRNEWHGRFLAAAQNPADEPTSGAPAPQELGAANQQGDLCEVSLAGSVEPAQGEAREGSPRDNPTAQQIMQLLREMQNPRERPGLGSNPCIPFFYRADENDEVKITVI
Assay [4] addresses MTUS2, Q5JR59-3.
In the next assay the target is T3, cep70_human CEP70 (UniProt Q8NHQ1).
T3 sequence: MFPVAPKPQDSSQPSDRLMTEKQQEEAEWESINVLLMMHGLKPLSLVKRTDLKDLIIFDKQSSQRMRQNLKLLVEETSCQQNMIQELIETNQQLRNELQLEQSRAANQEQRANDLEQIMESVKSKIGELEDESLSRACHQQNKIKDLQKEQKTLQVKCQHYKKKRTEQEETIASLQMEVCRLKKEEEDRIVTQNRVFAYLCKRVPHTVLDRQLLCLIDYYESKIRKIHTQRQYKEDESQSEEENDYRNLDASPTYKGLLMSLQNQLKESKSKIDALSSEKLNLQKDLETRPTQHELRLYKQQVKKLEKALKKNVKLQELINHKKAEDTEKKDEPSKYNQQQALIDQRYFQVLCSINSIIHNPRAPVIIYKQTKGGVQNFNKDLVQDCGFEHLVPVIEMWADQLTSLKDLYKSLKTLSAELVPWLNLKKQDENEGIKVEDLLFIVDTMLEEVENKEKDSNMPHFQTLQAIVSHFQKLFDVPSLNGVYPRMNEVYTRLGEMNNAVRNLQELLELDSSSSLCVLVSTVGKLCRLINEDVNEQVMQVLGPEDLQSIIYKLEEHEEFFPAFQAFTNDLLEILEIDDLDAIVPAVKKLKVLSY

Assay [5] has as its target ifit3_human IFIT3 (UniProt O14879).
In assay [6] the target is CAGE1, Q8TC20-4.
CAGE1, Q8TC20-4, sequence (Q8TC20 other isoform, or with tags, fused parts or gaps): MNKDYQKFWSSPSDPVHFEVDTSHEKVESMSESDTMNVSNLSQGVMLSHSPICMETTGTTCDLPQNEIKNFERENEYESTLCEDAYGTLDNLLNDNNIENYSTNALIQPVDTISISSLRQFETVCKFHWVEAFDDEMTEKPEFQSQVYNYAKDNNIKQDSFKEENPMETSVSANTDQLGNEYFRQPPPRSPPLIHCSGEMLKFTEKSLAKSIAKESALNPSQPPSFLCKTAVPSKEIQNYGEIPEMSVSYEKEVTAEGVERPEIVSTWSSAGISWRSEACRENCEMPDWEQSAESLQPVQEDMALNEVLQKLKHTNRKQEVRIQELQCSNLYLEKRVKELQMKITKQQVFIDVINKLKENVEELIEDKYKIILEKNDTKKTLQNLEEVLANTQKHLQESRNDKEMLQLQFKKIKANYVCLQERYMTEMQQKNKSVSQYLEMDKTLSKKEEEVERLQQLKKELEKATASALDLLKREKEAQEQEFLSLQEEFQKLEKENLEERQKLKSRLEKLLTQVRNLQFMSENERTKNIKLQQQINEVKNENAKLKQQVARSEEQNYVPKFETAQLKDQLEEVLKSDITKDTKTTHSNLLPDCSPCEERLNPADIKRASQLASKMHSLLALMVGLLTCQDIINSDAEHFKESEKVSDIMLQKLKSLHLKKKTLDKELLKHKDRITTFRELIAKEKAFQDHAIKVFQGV
For assay [7], the target named is ifit3_human IFIT3 (UniProt O14879). This is another data set of the same source.
ifit3_human IFIT3, sequence (O14879 whole entry): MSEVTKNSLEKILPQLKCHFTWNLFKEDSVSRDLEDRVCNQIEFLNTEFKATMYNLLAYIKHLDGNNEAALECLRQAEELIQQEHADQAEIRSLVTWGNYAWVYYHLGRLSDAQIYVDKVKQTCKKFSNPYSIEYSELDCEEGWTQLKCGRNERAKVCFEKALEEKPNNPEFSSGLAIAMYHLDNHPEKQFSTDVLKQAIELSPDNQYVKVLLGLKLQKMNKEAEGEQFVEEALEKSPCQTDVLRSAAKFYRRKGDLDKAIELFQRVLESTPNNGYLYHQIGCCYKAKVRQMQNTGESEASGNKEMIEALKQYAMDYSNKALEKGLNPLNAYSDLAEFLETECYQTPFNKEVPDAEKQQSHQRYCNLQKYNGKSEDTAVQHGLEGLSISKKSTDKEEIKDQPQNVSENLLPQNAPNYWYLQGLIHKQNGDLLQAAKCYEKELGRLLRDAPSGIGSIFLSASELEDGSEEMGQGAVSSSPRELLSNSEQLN
Assay [8] addresses syce1_human SYCE1 (UniProt Q8N0S2).
Assay [9] has as its target goga2_human GOLGA2 (UniProt Q08379). The source holds these as a separate data set.
For assay [10], the target named is CAGE1, Q8TC20-4. This is another data set of the same source.
In assay [11] the target is syce1_human SYCE1 (UniProt Q8N0S2). The source holds these as a separate data set.
syce1_human SYCE1, sequence (Q8N0S2 whole entry): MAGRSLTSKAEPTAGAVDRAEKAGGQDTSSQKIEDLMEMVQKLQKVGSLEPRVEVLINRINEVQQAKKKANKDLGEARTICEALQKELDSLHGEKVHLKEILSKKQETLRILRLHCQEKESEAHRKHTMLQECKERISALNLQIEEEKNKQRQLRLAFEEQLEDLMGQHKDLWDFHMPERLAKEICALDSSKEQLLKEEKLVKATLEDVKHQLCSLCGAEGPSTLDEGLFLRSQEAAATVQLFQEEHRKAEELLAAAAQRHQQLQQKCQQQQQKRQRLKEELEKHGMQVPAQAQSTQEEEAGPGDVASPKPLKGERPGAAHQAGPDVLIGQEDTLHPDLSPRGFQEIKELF
Assay [12] concerns the target MTUS2, Q5JR59-3. The source holds these as a separate data set.

Tropomyosin alpha-1 chain (Homo sapiens), P09493-10 D175N, sequence (P09493 other isoform, or with tags, fused parts or gaps D175N): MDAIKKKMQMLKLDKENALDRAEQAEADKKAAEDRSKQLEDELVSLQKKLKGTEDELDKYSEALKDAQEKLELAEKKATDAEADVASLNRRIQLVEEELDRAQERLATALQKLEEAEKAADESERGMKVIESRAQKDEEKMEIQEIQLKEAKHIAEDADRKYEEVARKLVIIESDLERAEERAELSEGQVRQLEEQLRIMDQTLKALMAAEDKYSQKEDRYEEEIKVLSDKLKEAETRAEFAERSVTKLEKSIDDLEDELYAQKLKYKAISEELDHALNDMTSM
Tropomyosin alpha-1 chain (Homo sapiens), P09493-10 V95A, sequence (P09493 other isoform, or with tags, fused parts or gaps V95A): as the sequence (P09493 other isoform, or with tags, fused parts or gaps D175N) above
MTUS2, Q5JR59-3, sequence (Q5JR59 other isoform, or with tags, fused parts or gaps): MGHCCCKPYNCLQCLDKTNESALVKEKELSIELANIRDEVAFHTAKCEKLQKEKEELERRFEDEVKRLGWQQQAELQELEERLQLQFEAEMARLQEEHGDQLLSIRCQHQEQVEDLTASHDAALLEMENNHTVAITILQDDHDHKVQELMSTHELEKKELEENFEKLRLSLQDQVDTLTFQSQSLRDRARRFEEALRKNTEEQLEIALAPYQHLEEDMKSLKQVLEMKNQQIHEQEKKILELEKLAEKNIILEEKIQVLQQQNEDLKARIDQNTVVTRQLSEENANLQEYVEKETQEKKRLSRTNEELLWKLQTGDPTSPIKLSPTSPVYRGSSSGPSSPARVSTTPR
tsg10_human TSGA10, sequence (Q9BZW7 whole entry): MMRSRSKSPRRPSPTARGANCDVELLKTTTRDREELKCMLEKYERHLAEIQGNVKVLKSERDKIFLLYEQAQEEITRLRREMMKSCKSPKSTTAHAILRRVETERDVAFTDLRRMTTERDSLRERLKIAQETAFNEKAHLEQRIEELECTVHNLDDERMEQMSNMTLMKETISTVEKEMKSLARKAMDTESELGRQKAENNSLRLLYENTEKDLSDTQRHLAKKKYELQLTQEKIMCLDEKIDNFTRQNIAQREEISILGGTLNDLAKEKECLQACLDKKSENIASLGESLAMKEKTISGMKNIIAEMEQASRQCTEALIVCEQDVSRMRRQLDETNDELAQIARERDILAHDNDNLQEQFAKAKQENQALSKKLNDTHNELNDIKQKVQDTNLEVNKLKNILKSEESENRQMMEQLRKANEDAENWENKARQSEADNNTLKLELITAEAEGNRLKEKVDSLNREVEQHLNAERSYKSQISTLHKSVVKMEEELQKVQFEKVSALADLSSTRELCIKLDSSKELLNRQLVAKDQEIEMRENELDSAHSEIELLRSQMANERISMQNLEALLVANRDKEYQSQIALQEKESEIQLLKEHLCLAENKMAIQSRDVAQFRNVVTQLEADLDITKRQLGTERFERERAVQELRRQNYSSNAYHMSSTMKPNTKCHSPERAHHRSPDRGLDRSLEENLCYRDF
kxdl1_human KXD1, sequence (Q9BQD3 whole entry): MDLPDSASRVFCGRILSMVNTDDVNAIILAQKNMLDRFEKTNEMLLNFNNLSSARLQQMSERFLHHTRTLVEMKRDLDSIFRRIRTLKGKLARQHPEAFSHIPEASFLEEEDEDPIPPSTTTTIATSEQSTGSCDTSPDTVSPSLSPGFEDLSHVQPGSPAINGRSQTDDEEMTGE
md1l1_human MAD1L1, sequence (Q9Y6D9 whole entry): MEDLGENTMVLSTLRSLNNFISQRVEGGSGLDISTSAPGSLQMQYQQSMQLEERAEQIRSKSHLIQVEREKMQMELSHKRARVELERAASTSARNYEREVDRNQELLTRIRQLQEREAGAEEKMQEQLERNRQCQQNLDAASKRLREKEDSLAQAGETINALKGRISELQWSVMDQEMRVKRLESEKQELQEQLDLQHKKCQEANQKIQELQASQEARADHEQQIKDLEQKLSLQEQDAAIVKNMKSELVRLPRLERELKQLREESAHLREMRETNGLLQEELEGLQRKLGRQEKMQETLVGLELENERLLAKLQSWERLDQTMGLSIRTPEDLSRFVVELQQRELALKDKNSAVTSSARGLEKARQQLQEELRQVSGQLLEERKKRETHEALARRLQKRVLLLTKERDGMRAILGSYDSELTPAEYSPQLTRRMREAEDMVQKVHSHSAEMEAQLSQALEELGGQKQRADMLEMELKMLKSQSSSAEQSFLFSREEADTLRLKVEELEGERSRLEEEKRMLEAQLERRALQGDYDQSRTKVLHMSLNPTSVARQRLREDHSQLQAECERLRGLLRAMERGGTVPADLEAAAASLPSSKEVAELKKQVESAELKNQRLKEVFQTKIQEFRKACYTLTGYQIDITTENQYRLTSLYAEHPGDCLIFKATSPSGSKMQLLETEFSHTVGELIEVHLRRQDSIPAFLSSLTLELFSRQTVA
Cytochrome c (Homo sapiens), P99999 G42S, sequence (P99999 whole entry G42S): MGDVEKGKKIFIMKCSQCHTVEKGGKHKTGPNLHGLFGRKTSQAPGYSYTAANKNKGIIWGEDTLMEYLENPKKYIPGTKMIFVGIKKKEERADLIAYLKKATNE

“Actin, cytoplasmic 1 (Homo sapiens) (from UniProt P60709) R183W”: the figures for the “effect of a mutation on the interaction” value with cof2_human CFL2, with cap2_human CAP2 [1] and with cap2_human CAP2 [2] were “with no effect”, “causing an interaction” and “with no effect”, respectively.
As for “Cytochrome c (Homo sapiens), P99999 G42S”, in the assay with KRT40, the “effect of a mutation on the interaction” value was “with no effect”.
On to “DNA polymerase beta (Homo sapiens) (from UniProt P06746) R137Q”, for which the “effect of a mutation on the interaction” value with tpp2_human TPP2 is “with no effect”.
As for “Parafibromin (Homo sapiens) (from UniProt Q6P1J9) L64P”, the “effect of a mutation on the interaction” value in the assay with tfcp2_human TFCP2, with hem1_human ALAS1, with kash5_human KASH5, with tsg10_human TSGA10, in the assay with fsd2_human FSD2 and in the assay with goga2_human GOLGA2 [3] was “disrupting interaction strength” each time. Moreover, the “effect of a mutation on the interaction” value is recorded as “disrupting interaction strength” with MTUS2, Q5JR59-3 [4] and “disrupting interaction strength” in the assay with cep70_human CEP70.
On to “Parafibromin (Homo sapiens) (from UniProt Q6P1J9) R91P”, for which the “effect of a mutation on the interaction” value in the assay with tfcp2_human TFCP2, in the assay with hem1_human ALAS1, in the assay with kash5_human KASH5, with tsg10_human TSGA10, with fsd2_human FSD2 and in the assay with goga2_human GOLGA2 [3] was “disrupting interaction strength” each time. In addition, the “effect of a mutation on the interaction” value in the assay with MTUS2, Q5JR59-3 [4] was “disrupting interaction strength”; with cep70_human CEP70 it was “disrupting interaction strength”.
For the substance “Tropomyosin alpha-1 chain (Homo sapiens), P09493-10 D175N”, the “effect of a mutation on the interaction” value is reported as “with no effect” in the assay with ifit3_human IFIT3 [5]; “with no effect” in the assay with md1l1_human MAD1L1; “causing an interaction” with CAGE1, Q8TC20-4 [6]; “causing an interaction” with ifit3_human IFIT3 [7]; “with no effect” with syce1_human SYCE1 [8]; “with no effect” with goga2_human GOLGA2 [9]. Besides, the “effect of a mutation on the interaction” value is listed as “with no effect” with tfpt_human TFPT; “with no effect” with kxdl1_human KXD1; “with no effect” in the assay with TNNT1, P13805-3; “with no effect” with CAGE1, Q8TC20-4 [10].
On to “Tropomyosin alpha-1 chain (Homo sapiens), P09493-10 V95A”, for which the “effect of a mutation on the interaction” value with ifit3_human IFIT3 [5] was “with no effect”; in the assay with md1l1_human MAD1L1, “with no effect”; with syce1_human SYCE1 [11], “with no effect”; in the assay with syce1_human SYCE1 [8] it was “disrupting interaction strength”; with goga2_human GOLGA2 [9], “disrupting interaction strength”; with tfpt_human TFPT it was “with no effect”. Besides, the “effect of a mutation on the interaction” value with kxdl1_human KXD1 is recorded as “with no effect”; in the assay with TNNT1, P13805-3, “with no effect”; with CAGE1, Q8TC20-4 [10], “with no effect”.
Take “Zinc finger protein 624 (Homo sapiens), Q9P2J8 K135N”: the “effect of a mutation on the interaction” value with MTUS2, Q5JR59-3 [12] is on record as “with no effect”.
